Assay results as given in patent US20240092919A1 (Ablynx, published 2024).

Tests used:
[1] = molecular target: T1, Cynomolgus TCR(AEA41865/AEA41866)-zipper protein (cynomolgus monkey); experiment: SPR, ProteOn XPR36, 25 C, immobilised cyTCR-zipper
T1 construct: also called cyTCR-zipper protein; cynoTCR zipper
Text: HuTCR-zipper or cyTCR-zipper protein was immobilized on a GLC sensor chip (between 100-200 RU) via amine coupling chemistry, using EDC/NHS for activation of the carboxyl groups on the chip surface (running buffer: HBS-EP+, pH7.4). […] Processed sensorgrams were fitted with the Langmuir model (1:1 interaction) using ProteOn Manager 3.1.0 (Version 3.1.0.6) software.
T1 TCR alpha: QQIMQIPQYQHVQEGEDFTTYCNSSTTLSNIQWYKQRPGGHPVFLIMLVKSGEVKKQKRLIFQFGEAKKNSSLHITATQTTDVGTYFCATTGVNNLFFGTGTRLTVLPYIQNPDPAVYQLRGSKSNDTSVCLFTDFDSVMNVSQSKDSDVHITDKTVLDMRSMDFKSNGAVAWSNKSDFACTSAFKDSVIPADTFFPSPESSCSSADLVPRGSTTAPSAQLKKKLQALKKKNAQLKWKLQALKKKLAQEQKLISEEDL
T1 TCR beta: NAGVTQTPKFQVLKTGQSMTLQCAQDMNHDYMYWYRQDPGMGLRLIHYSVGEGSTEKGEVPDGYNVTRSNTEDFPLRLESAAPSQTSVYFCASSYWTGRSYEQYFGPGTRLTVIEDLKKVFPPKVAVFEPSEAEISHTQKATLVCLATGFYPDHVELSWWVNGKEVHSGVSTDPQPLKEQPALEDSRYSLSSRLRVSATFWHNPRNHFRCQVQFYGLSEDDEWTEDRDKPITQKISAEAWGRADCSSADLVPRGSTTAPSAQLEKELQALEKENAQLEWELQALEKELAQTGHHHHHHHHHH

[2] = molecular target: Cynomolgus T cell receptor on cynomolgus primary T cells (cynomolgus monkey); experiment: cell-based or functional assay; note: test concentration or dose not given here
[3] = molecular target: T2, Human T cell receptor on human primary T cells (human, UniProt P01848 1-140; P01850 1-176); experiment: cell-based or functional assay; note: test concentration or dose not given here
T2 TCR alpha (looked up): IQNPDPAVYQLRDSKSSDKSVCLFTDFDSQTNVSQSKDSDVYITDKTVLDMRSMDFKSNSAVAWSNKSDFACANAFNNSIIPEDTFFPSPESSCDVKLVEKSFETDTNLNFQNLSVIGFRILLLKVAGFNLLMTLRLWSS
T2 TCR beta (looked up): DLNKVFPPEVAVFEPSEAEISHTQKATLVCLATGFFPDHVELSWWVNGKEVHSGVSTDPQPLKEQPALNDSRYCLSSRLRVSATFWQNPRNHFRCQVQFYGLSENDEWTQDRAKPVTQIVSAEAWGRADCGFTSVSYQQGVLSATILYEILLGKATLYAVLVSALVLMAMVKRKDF

B1: T017000637 (bispecific antibody)
chain: DVQLVESGGGLVQAGGSLRLSCAASGITSKINDMGWYRQTPGNYREWVASITATGTTNYRDSVKGRFTISRDNAKSTVYLQMNSLKPEDTTVYYCNTFPPISNFWGQGTLVTVSSGGGGSGGGGSGGGGSGGGGSGGGGSGGGGSGGGGSEVQLVESGGGVVQPGGSLRLSCVASWDVHQINFYGWYRQAPGKEREKVAHISIGDQTDYADSAKGRFTISRDESKNTVYLQMNSLRPEDTALYYCRALSRIWPYDYWGQGTLVTVSSA
notes: also called A0110056A10(E1D)-35GS-T0170056G05(L11V, G26W, K30Q, L34Y, M77T, K83R, V89L, F91Y, M95L, Y99W)-A
binding result [1]: no binding (tested: injected between 4.1 nM and 1000 nM)
% Lysis, T cell mediated MOLM-13 cell killing, cynomolgus primary T cells, E:T 10:1 [2]: 17%
% Lysis, T cell mediated MOLM-13 cell killing, human primary T cells, E:T 10:1 [3]: 0%
